Ends that are not written are not given here.
Legend:
syndecan-4 [1] = biological target: T1, syndecan-4 (Homo sapiens, UniProt P31431); assay: Syndecan-4 mediated internalization and nuclear targeting of FITC labeled basic peptides (immunofluorescent microscopy); format: cell-based; conditions: 10 μM FITC labeled peptide
T1 construct: comprising the full, human syndecan-4 cDNA driven by cytomegalovirus (CMV) promoter; expressed in transfected cells; host or cells: HT1080 fibrosarcoma, MCF7 adenocarcinoma
T1 sequence (P31431 19-198): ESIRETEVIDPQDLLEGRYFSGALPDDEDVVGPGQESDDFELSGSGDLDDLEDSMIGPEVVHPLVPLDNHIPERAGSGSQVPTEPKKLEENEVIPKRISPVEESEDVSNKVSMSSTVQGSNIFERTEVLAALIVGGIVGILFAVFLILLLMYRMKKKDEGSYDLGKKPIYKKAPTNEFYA
Excerpt: Green fluorescent protein (GFP, Clontech; Palo Alto, Calif., USA) labeled fusion proteins were used to follow the process of the endocytosis of syndecan-4 in vivo. GFP was inserted into the syndecan-4 extracellular region in the HuSynd4 pCMV construct, comprising the full, human syndecan-4 cDNA driven by cytomegalovirus (CMV) promoter by using techniques well-known by the person skilled in the art. To avoid possible artifacts, every experiment was repeated with all of the constructs; HuSynd4 pCMV and the GFP chimeras. To reveal the role and the importance of phosphorylation stage of Ser179, mutations were introduced into the cytoplasmic tail region of syndecan-4-GFP chimeras. […]
Syndecan-4 is able to carry the agents bound on the cell surface into the cell. […] The cells were permeabilized with 0.1% triton X-100 (Sigma, St. Louis, Mo., USA) in PBS, and syndecan-4 was visualized with anti-syndecan-4 ectodomain serum (Zymed, San Francisco, Calif., USA), monitored by immunofluorescent microscopy. […] The labeled molecules were detected in distinct compartments of cytoplasm, which indicate that the syndecan-4 was able to internalize and traffic the attached agents, like antibodies, and basic peptides along, holding the specifically bound agents intact throughout the whole process. […]

syndecan-4 [2] = assay: FGF2 stimulated syndecan-4 endocytosis, time-lapse confocal microscopy; format: cell-based, human; conditions: HT1080, 22° C., 0, 10 and 60 minutes

Substance | nuclear accumulation of labeled oligopeptide, colocalized with syndecan-4 (syndecan-4 [1]) | triggering of syndecan-4 endocytosis and penetration into the cell (syndecan-4 [1]; incubated for an hour) | syndecan-4 endocytosis (syndecan-4 [2])
KRKRKR (also: FITC label) [6 amino acid basic oligopeptide, fluorescently (FITC) labeled] | accumulated in the nucleus | able to trigger the endocytosis, and penetrate | –
FGF2: basic fibroblast growth factor, stimulator of syndecan-4 endocytosis | – | – | stimulated
